What was measured:
[1] = biological target: T1, human ALPL expressed on cells (alkaline phosphatase tissue-nonspecific isozyme, NM_000478.4) (human, UniProt P05186 18-501); assay: cell-based or functional assay
T1 sequence: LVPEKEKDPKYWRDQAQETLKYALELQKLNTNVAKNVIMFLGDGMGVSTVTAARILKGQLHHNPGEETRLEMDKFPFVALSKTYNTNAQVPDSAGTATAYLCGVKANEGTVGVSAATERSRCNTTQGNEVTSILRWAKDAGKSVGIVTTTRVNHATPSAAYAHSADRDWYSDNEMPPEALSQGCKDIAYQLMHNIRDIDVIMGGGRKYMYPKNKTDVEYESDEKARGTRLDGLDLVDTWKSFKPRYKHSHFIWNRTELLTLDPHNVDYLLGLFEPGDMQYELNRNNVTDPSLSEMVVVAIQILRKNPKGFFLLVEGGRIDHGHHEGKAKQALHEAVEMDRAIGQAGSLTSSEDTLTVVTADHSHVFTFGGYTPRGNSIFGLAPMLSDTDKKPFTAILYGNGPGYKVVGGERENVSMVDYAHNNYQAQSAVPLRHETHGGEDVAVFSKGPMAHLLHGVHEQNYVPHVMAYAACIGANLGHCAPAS

[2] = biological target: T2, ALPL with a deletion of the ER localization signal (ALPL transcript variant 2, NM_001127501) (human, UniProt P05186 56-501); assay: cell-based or functional assay
T2 sequence: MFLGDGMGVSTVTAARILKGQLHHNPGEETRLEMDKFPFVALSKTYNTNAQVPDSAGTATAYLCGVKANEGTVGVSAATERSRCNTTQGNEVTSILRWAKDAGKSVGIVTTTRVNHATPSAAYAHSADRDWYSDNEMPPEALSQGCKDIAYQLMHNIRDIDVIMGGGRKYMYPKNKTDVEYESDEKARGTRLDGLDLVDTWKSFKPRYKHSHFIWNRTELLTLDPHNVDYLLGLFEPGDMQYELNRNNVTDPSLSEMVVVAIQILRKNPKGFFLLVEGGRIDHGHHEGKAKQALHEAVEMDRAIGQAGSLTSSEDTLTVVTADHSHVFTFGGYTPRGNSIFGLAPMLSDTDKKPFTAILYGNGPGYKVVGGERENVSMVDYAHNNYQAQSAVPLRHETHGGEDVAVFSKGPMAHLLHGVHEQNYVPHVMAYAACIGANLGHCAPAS

B1: TTM-002 capsid variant (AAV particle comprising the TTM-002 AAV9 capsid variant) (other)
chain 1: MAADGYLPDWLEDNLSEGIREWWALKPGAPQPKANQQHQDNARGLVLPGYKYLGPGNGLDKGEPVNAADAAALEHDKAYDQQLKAGDNPYLKYNHADAEFQERLKEDTSFGGNLGRAVFQAKKRLLEPLGLVEEAAKTAPGKKRPVEQSPQEPDSSAGIGKSGAQPAKKRLNFGQTGDTESVPDPQPIGEPPAAPSGVGSLTMASGGGAPVADNNEGADGVGSSSGNWHCDSQWLGDRVITTSTRTWALPTYNNHLYKQISNSTSGGSSNDNAYFGYSTPWGYFDFNRFHCHFSPRDWQRLINNNWGFRPKRLNFKLFNIQVKEVTDNNGVKTIANNLTSTVQVFTDSDYQLPYVLGSAHEGCLPPFPADVFMIPQYGYLTLNDGSQAVGRSSFYCLEYFPSQMLRTGNNFQFSYEFENVPFHSSYAHSQSLDRLMNPLIDQYLYYLSKTINGHDSPHKSGQNQQTLKFSVAGPSNMAVQGRNYIPGPSYRQQRVSTTVTQNNNSEFAWPGASSWALNGRNSLMNPGPAMASHKEGEDRFFPLSGSLIFGKQGTGRDNVDADKVMITNEEEIKTTNPVATESYGQVATNHQSAQAQAQTGWVQNQGILPGMVWQDRDVYLQGPIWAKIPHTDGNFHPSPLMGGFGMKHPPPQILIKNTPVPADPPTAFNKDKLNSFITQYSTGQVSVEIEWELQKENSKRWNPEIQYTSNYYKSNNVEFAVNTEGVYSEPRPIGTRYLTRNL
chain 2: TAPGKKRPVEQSPQEPDSSAGIGKSGAQPAKKRLNFGQTGDTESVPDPQPIGEPPAAPSGVGSLTMASGGGAPVADNNEGADGVGSSSGNWHCDSQWLGDRVITTSTRTWALPTYNNHLYKQISNSTSGGSSNDNAYFGYSTPWGYFDFNRFHCHFSPRDWQRLINNNWGFRPKRLNFKLFNIQVKEVTDNNGVKTIANNLTSTVQVFTDSDYQLPYVLGSAHEGCLPPFPADVFMIPQYGYLTLNDGSQAVGRSSFYCLEYFPSQMLRTGNNFQFSYEFENVPFHSSYAHSQSLDRLMNPLIDQYLYYLSKTINGHDSPHKSGQNQQTLKFSVAGPSNMAVQGRNYIPGPSYRQQRVSTTVTQNNNSEFAWPGASSWALNGRNSLMNPGPAMASHKEGEDRFFPLSGSLIFGKQGTGRDNVDADKVMITNEEEIKTTNPVATESYGQVATNHQSAQAQAQTGWVQNQGILPGMVWQDRDVYLQGPIWAKIPHTDGNFHPSPLMGGFGMKHPPPQILIKNTPVPADPPTAFNKDKLNSFITQYSTGQVSVEIEWELQKENSKRWNPEIQYTSNYYKSNNVEFAVNTEGVYSEPRPIGTRYLTRNL
chain 3: MASGGGAPVADNNEGADGVGSSSGNWHCDSQWLGDRVITTSTRTWALPTYNNHLYKQISNSTSGGSSNDNAYFGYSTPWGYFDFNRFHCHFSPRDWQRLINNNWGFRPKRLNFKLFNIQVKEVTDNNGVKTIANNLTSTVQVFTDSDYQLPYVLGSAHEGCLPPFPADVFMIPQYGYLTLNDGSQAVGRSSFYCLEYFPSQMLRTGNNFQFSYEFENVPFHSSYAHSQSLDRLMNPLIDQYLYYLSKTINGHDSPHKSGQNQQTLKFSVAGPSNMAVQGRNYIPGPSYRQQRVSTTVTQNNNSEFAWPGASSWALNGRNSLMNPGPAMASHKEGEDRFFPLSGSLIFGKQGTGRDNVDADKVMITNEEEIKTTNPVATESYGQVATNHQSAQAQAQTGWVQNQGILPGMVWQDRDVYLQGPIWAKIPHTDGNFHPSPLMGGFGMKHPPPQILIKNTPVPADPPTAFNKDKLNSFITQYSTGQVSVEIEWELQKENSKRWNPEIQYTSNYYKSNNVEFAVNTEGVYSEPRPIGTRYLTRNL
- fold change in luciferase activity relative to the pCMV6 control cells (cells transfected with ALPL) [1]: 24 fold
- fold change in luciferase activity relative to the pCMV6 control cells (cells transfected with ALPL comprising a deletion of the ER localization signal) [2]: 2 fold

Reference: patent publication US20260250318A1, “COMPOSITIONS AND METHODS FOR CROSSING THE BLOOD BRAIN BARRIER” (VOYAGER THERAPEUTICS, INC., priority 2022, published 2026)
